The source of these data is FireProtDB (doi:10.1016/s0006-3495(99)76955-9).

First the molecules themselves.
B1: Azurin, P00282 (parent)
chain: MLRKLAAVSLLSLLSAPLLAAECSVDIQGNDQMQFNTNAITVDKSCKQFTVNLSHPGNLPKNVMGHNWVLSTAADMQGVVTDGMASGLDKDYLKPDDSRVIAHTKLIGSGEKDSVTFDVSKLKEGEQYMFFCTFPGHSALMKGTLTLK

In the data set the parent is B1. The settings on record: Pseudomonas aeruginosa (strain ATCC 15692 / DSM 22644 / CIP 104116 / JCM 14847 / LMG 12228 / 1C / PRS 101 / PAO1); pH 7.03; 20 °C; Thermal; DSC; phosphate buffer 10 mM; sodium chloride 40 microM; reversible: no; structure 5AZU; whole UniProt chain shown.
On to C23A C46A, for which the “unfolding enthalpy (calorimetric)” value was 16 kcal/mol and the unfolding free energy amounted to 7.79 kcal/mol.
